These are literature values, as cited in paper PMC7192543.

The target of series [1] is OmpR~P (Escherichia coli) (UniProt P0AA16).
The next series concerns the target OmpR (Escherichia coli) (UniProt P0AA16). Put plainly: fluorescence anisotropy.

Consider EnvZ (from UniProt P0AEJ4), for which the Kd in series [1] is over 5 µM. Regarding “EnvZ cytoplasmic domain (EnvZc) (from UniProt P0AEJ4)”, in the series with OmpR (Escherichia coli), the dissociation constant (Kd) was 0.425 µM.
